Measurements from patent US20240150491A1 (Genentech, published 2024).
Numbering of substitutions follows the chain as printed.

B1: 14H11 (antibody, V domains shown)
VH: QSLEESGGDLVKPGASLTLTCTASGFSFSSSYYMCWVRQAPGKGLEWIASIYAGSSGAPYYAGWAKGRFTISKTSSTAVTLQMSSLTAADTATYFCAREGFAETGGYGYAAYFNLWGPGTLVTVSS
VL: AIEMTQSPPSLSASVGETVRIRCLASEDIASSVSWYQQKPGKPPTLLIYGASNLESGVPPRFTGSGSGTDYTLTIGGVQAEDAATYYCLGGYSYSSTGTAFGAGTKVEIK
B2: hu10C5VY (antibody, V domains shown)
VH: EVQLVESGGGLVQPGGSLRLSCAASGFSLSSYGVTWVRQAPGKGLEWIGYITSVYGVSYYASWAKSRSTISRDTSKNTVYLQMGSLRAEDMAVYYCARENPDYGYAYDAWGQGTTVTVSS
VL: AIRMTQSPSSFSASTGDRVTITCQASESISNELSWYQQKPGKAPKLLIYYASTLASGVPSRFSGSGSGTDFTLTISSLQPEDFATYYCAQGYGSSGVENVFGGGTKVEIK
B3: hu.14H11c.L2H11-hIgG1 (antibody, V domains shown)
VH: EQQLVESGGGLIQPGGSLRLSCAASGFSFSSSYYMSWVRQAPGKGLEWVSSIYAGSSGAPYYAGWAKGRFTISRDNSKNTLYLQMNSLRAEDTAVYYCAREGFAETGGYGYAAYFNLWGPGTLVTVSS
VL: DIQMTQSPSSLSASVGDRVTITCLASEDIASSVSWYQQKPGKAPKLLIYGASNLESGVPSRFSGSGSGTDYTLTISSLQPEDFATYYCLGGYSYSSTGTAFGGGTKVEIK
B4: hu.10C5VY.hu14H11c.L2H11 WT (bispecific antibody, human IgG1, kappa, N297G)
heavy 1: not shown
light 1: DIQMTQSPSSLSASVGDRVTITCLASEDIASSVSWYQKKPGKAPKLLIYGASNLESGVPSRFSGSGSGTDYTLTISSLQPEDFATYYCLGGYSYSSTGTAFGGGTKVEIKRTVAAPSVFIFPPSDEQLKSGTASVECLLNNFYPREAKVQWKVDNALQSGNSQESVTEQDSKDSTYSLSSTLTLSKADYEKHKVYACEVTHQGLSSPVTKSFNRGEC
heavy 2: EVQLVESGGGLVQPGGSLRLSCAASGFSLSSYGVTWVRKAPGKGLEWIGYITSVYGVSYYASWAKSRSTISRDTSKNTVYLQMGSLRAEDMAVYYCARENPDYGYAYDAWGQGTTVTVSSASTKGPSVFPLAPSSKSTSGGTAALGCLVKDYFPEPVTVSWNSGALTSGVHTFPAVLQSSGLYSLESVVTVPSSSLGTQTYICNVNHKPSNTKVDKKVEPKSCDKTHTCPPCPAPELLGGPSVFLFPPKPKDTLMISRTPEVTCVVVDVSHEDPEVKFNWYVDGVEVHNAKTKPREEQYGSTYRVVSVLTVLHQDWLNGKEYKCKVSNKALPAPIEKTISKAKGQPREPQVYTLPPSREEMTKNQVSLSCAVKGFYPSDIAVEWESNGQPENNYKTTPPVLDSDGSFFLVSKLTVDKSRWQQGNVFSCSVMHEALHNHYTQKSLSLSPGK
light 2: AIRMTQSPSSFSASTGDRVTITCQASESISNELSWYQEKPGKAPKLLIYYASTLASGVPSRFSGSGSGTDFTLTISSLQPEDFATYYCAQGYGSSGVENVFGGGTKVEIKRTVAAPSVFIFPPSDEQLKSGTASVKCLLNNFYPREAKVQWKVDNALQSGNSQESVTEQDSKDSTYSLSSTLTLSKADYEKHKVYACEVTHQGLSSPVTKSFNRGEC
B5: hu.10C5VY.hu14H11c.L2H11 LS (bispecific antibody, human IgG1, kappa, N297G)
heavy 1: EQQLVESGGGLIQPGGSLRLSCAASGFSFSSSYYMSWVREAPGKGLEWVSSIYAGSSGAPYYAGWAKGRFTISRDNSKNTLYLQMNSLRAEDTAVYYCAREGFAETGGYGYAAYFNLWGPGTLVTVSSASTKGPSVFPLAPSSKSTSGGTAALGCLVKDYFPEPVTVSWNSGALTSGVHTFPAVLQSSGLYSLKSVVTVPSSSLGTQTYICNVNHKPSNTKVDKKVEPKSCDKTHTCPPCPAPELLGGPSVFLFPPKPKDTLMISRTPEVTCVVVDVSHEDPEVKFNWYVDGVEVHNAKTKPREEQYGSTYRVVSVLTVLHQDWLNGKEYKCKVSNKALPAPIEKTISKAKGQPREPQVYTLPPSREEMTKNQVSLWCLVKGFYPSDIAVEWESNGQPENNYKTTPPVLDSDGSFFLYSKLTVDKSRWQQGNVFSCSVLHEALHSHYTQKSLSLSPGK
light 1: B4 light 1
heavy 2: B4 heavy 2 with M431L, N437S
light 2: B4 light 2

Each binder was assayed against T1, human KLK7 (SEQ ID NO: 4 plus a C-terminal FLAG tag) (human, UniProt P49862 30-253) (assay: cell-based or functional assay).
T1 sequence (P49862 30-253): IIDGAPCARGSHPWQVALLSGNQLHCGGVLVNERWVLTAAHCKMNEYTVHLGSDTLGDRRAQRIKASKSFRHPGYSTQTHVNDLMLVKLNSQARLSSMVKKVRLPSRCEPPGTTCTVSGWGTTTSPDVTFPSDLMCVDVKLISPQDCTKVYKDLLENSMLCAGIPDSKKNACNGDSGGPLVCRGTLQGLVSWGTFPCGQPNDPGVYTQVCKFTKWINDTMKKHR

Which “IC50, inhibition of KLK7 cleavage of MCA peptide substrate (bivalency not accounted for)” value does the source give for B1 here?
The value was 0.11 nM.

The binders below were run against T2, cyno KLK7 (SEQ ID NO: 6 plus a C-terminal FLAG tag) (cynomolgus monkey, UniProt P49862 30-253 (human entry)) (assay: cell-based or functional assay).
T2 sequence (P49862 other isoform, or with tags, fused parts or gaps): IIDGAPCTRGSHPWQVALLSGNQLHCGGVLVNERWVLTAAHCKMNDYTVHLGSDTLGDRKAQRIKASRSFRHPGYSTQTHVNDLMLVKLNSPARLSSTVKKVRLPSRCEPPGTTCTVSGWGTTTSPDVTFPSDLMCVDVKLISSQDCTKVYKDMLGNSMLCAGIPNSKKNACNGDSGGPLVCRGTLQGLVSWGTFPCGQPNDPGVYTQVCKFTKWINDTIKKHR

Which “IC50, inhibition of KLK7 cleavage of MCA peptide substrate (bivalency not accounted for)” value does the source give for B1 here?
Its value is 0.15 nM.

Target: T1, human KLK7 (SEQ ID NO: 4 plus a …)
Assay: cell-based or functional assay
Remark: another data set of the same source

Which “IC50, inhibition of KLK7 cleavage of Mca-RPKPVE-Nval-WRK(Dnp) (bivalency corrected)” value does the source give for B2 here?
The value was > 10 nM.

Which “IC50, inhibition of KLK7 cleavage of Mca-RPKPVE-Nval-WRK(Dnp) (bivalency corrected)” value does the source give for B3 here?
Its value is 0.29 nM.

With B4 as the binder, how does the “IC50, inhibition of KLK7 cleavage of Mca-RPKPVE-Nval-WRK(Dnp) (bivalency corrected)” value read?
The value was 0.37 nM.

B5 was tested. Which “IC50, inhibition of KLK7 cleavage of Mca-RPKPVE-Nval-WRK(Dnp) (bivalency corrected)” value did it give?
The value was 0.34 nM.

These binders were tested against T3, human KLK5 (human, UniProt Q9Y337 67-293) (assay: cell-based or functional assay).
T3 sequence: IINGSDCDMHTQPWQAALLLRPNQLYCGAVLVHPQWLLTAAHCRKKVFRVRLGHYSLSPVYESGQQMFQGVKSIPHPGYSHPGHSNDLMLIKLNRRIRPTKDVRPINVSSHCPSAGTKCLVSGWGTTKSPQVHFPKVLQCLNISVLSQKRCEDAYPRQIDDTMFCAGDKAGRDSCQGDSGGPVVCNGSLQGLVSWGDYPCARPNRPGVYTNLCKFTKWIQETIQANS

B2 was tested. Which “IC50, inhibition of KLK5 cleavage of Boc-Val-Pro-Arg-AMC (bivalency corrected)” value did it give?
The value was 0.46 nM.

For B3, which “IC50, inhibition of KLK5 cleavage of Boc-Val-Pro-Arg-AMC (bivalency corrected)” value is on record?
Its value is > 10 nM.

B4 was tested. Which “IC50, inhibition of KLK5 cleavage of Boc-Val-Pro-Arg-AMC (bivalency corrected)” value did it give?
The value was 0.67 nM.

B5 was tested. Which “IC50, inhibition of KLK5 cleavage of Boc-Val-Pro-Arg-AMC (bivalency corrected)” value did it give?
Its value is 0.54 nM.

Target: T2, cyno KLK7 (SEQ ID NO: 6 plus a …)
Assay: cell-based or functional assay
Remark: another data set of the same source

Which “IC50, inhibition of KLK7 cleavage of Mca-RPKPVE-Nval-WRK(Dnp) (bivalency corrected)” value does the source give for B2 here?
Its value is > 10 nM.

With B3 as the binder, how does the “IC50, inhibition of KLK7 cleavage of Mca-RPKPVE-Nval-WRK(Dnp) (bivalency corrected)” value read?
The value was 0.29 nM.

How did the “IC50, inhibition of KLK7 cleavage of Mca-RPKPVE-Nval-WRK(Dnp) (bivalency corrected)” value turn out when B4 was run?
Its value is 0.37 nM.

With B5 as the binder, how does the “IC50, inhibition of KLK7 cleavage of Mca-RPKPVE-Nval-WRK(Dnp) (bivalency corrected)” value read?
The value was 0.36 nM.

Target: T4, cynomolgus monkey KLK5 (cynomolgus monkey, UniProt Q9Y337 67-293 (human entry))
T4 chain: T3 sequence with M9E, R21G, A29G, V71I, R98H, P99S, K128R, K169E, R202K
Assay: cell-based or functional assay

With B2 as the binder, how does the “IC50, inhibition of KLK5 cleavage of Boc-Val-Pro-Arg-AMC (bivalency corrected)” value read?
Its value is 0.56 nM.

Which “IC50, inhibition of KLK5 cleavage of Boc-Val-Pro-Arg-AMC (bivalency corrected)” value does the source give for B3 here?
The value was > 10 nM.

With B4 as the binder, how does the “IC50, inhibition of KLK5 cleavage of Boc-Val-Pro-Arg-AMC (bivalency corrected)” value read?
The value was 0.73 nM.

Which “IC50, inhibition of KLK5 cleavage of Boc-Val-Pro-Arg-AMC (bivalency corrected)” value does the source give for B5 here?
The value was 0.58 nM.
